T1: ALK3 (BMPRIa) ECD (Homo sapiens, UniProt P36894)
T1 chain: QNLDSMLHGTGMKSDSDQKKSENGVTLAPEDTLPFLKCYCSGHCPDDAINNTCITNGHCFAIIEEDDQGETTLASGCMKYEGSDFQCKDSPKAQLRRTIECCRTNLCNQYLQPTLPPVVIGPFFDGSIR

B1: BMP2 (protein)
chain: QAKHKQRKRLKSSCKRHPLYVDFSDVGWNDWIVAPPGYHAFYCHGECPFPLADHLNSTNHAIVQTLVNSVNSKIPKACCVPTELSAISMLYLDENEKVVLKNYQDMVVEGCGCR

Legend:
[1] = molecular target: ActRII ECD (Homo sapiens) (UniProt P27037); conditions: cited from earlier work
ALK3 (BMPRIa) ECD = molecular target: T1, ALK3 (BMPRIa) ECD; assay: SPR

Sequence of ActRII ECD (Homo sapiens) (P27037 20-135): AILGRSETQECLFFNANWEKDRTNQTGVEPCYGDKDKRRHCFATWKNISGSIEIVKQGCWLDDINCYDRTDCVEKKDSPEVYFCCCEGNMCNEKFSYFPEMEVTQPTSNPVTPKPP

Molecule | Kd [1] | Kd (ALK3 (BMPRIa) ECD)
Activin A (from UniProt P08476) | 0.2 nM | –
B1 | – | 5 nM
